Measured values reported in patent US20190113512A1.
Numbering of substitutions follows the chain as printed. “And” between values parts separate entries of the source, which are not always exact repeats. Identical values can stand only once.

B1: rcSso7d.H7.1 (designed binder)
chain: MATVKFTYQGEEKQVDISKIKYVYRWGQRIWFRYDEGGGAIGRGRVSEKDAPKELLQMLEKQ
B2: rcSso7d.H1BA.6 (designed binder)
chain: B1 chain with Y22D, Y24W, R29W, W31D, R33I, I41D, R43W
B3: rcSso7d.H4.3 (designed binder)
chain: MATVKFTYQGEEKQVDISKIKHVWRRGQNIYFRYDEGGGAWGAGAVSEKDAPKELLQMLEKQ
B4: rcSso7d.H4.5 (designed binder)
chain: B1 chain with Y22G, W26H, R29S, I41W, R43W, R45I
B5: rcSso7d.H4.7 (designed binder)
chain: B3 chain with H22Y, R26H, N29H, Y31A, W41H, A43W, A45S
B6: rcSso7d.H4.8 (designed binder)
chain: B3 chain with H22D, R26H, N29H, Y31I, R33S, W41Y, A45H
B7: rcSso7d.H6BA.3 (designed binder)
chain: MATVKFTYQGEEKQVDISKIKRVIRAGQSIIFSYDEGGGAIGHGWVSEKDAPKELLQMLEKQ
B8: rcSso7d.H2BA.1 (designed binder)
chain: B7 chain with A26Y, S29A, I31A, S33A, I41R, H43Y
B9: rcSso7d.H4.4 (designed binder)
chain: MATVKFTYQGEEKQVDISKIKSVKRNGQSIDFDYDEGGGAAGEGKVSEKDAPKELLQMLEKQ
B10: rcSso7d.H4.9 (designed binder)
chain: MATVKFTYQGEEKQVDISKIKYVKRIGQYISFNYDEGGGAHGHGIVSEKDAPKELLQMLEKQ
B11: rcSso7d.Rv1656 (yeast-surface displayed) (designed binder)
chain: MATVKFTYQGEEKQVDISKIKWVRRYGQYIGFSYDEGGGAWGKGYVSEKDAPKELLQMLEKQ
B12: rcSso7d.H1BA.5 (designed binder)
chain: B11 chain with W22Y, S33I
B13: rcSso7d.H4.6 (designed binder)
chain: B9 chain with K24H, N26Y, S29K, D31Y, A41I, E43K, K45H
B14: rcSso7d.H6BA.2 (designed binder)
chain: B11 chain with R24Y, Y26W, G31I, S33A, W41A, Y45S
B15: rcSso7d.H1BA.4 (designed binder)
chain: B7 chain with R22N, I24Y, A26W, S29Y, I41Y, H43W
B16: rcSso7d.H6BA.1 (designed binder)
chain: B11 chain with R24Y, G31I, S33G, W41K, K43N
B17: rcSso7d.H1BA.1 (designed binder)
chain: B7 chain with R22H, I24R, A26W, S29Y, S33A, I41Y, H43G

biological target: fluorescent reagents used to detect binding activity

| Binder | Secondary control signal |
| --- | --- |
| B1 | 1.8% |
| B2 | 0.5% |
| B3 | 0% |
| B4 | 0.6% |
| B5 | 0% |
| B6 | 0% |
| B7 | 1.7% |
| B8 | 3.2% |
| B9 | 0% |
| B10 | 0% |
| B11 | 0.6% and 2.3% and 0% |
| B12 | 0.9% |
| B13 | 0% |
| B14 | 7.3% |
| B15 | 0% |
| B16 | 1.5% |
| B17 | 6% |

biological target: fluorescent reagents used to detect binding activity; remark: another data set of the same source

| Binder | Quadrant % Q1 |
| --- | --- |
| B11 | 0.1% |
